In patent US20250296982A1:

Key:
[1] = target: recombinant human FcRn (human α-FcRn with a 6× histidine tag on the C-terminus, co-expressed with human β2M) (human) (UniProt P55899); test: biolayer interferometry (Octet): antibody on anti-CH1 tip, FcRn in solution, pH 6.0
[2] = target: full-length, membrane-bound FcRn heterodimer (FcRn alpha and β2m) on transiently transfected Expi293 cells (UniProt P55899); test: cell-based competition at pH 6.0, flow cytometry: FcRn-expressing cells, dilutions of IgG against a fixed concentration of labelled Fc competitor Fc-A488
[3] = target: TRIM21-GST (Antibodies Online catalogue #ABIN1323621) (UniProt P19474); test: ELISA, antibody coated, TRIM21-GST titrated; reference WT
[4] = target: TRIM21-GST (Antibodies Online catalogue #ABIN1323621) (UniProt P19474); test: ELISA: antibody coated at 25 µg/mL, TRIM21-GST titrated, EC50 = midpoint of the 4PL fit
[5] = target: recombinant human FcRn (human α-FcRn with a 6× histidine tag on the C-terminus, co-expressed with human β2M) (human) (UniProt P55899); test: biolayer interferometry (Octet): antibody on anti-CH1 biosensor, recombinant FcRn in solution, pH 6.0; fold change against IgG with WT Fc
[6] = target: FcγRIIIa (UniProt P08637); test: plate binding assay, O.D. 650 against antibody concentration (format not described in Example 4)
[7] = target: recombinant human FcRn (human α-FcRn with a 6× histidine tag on the C-terminus, co-expressed with human β2M) (human) (UniProt P55899); test: biolayer interferometry (Octet): antibody on anti-CH1 biosensor, recombinant FcRn in solution, pH 6.0; reference of the fold changes
[8] = target: C1q of the low toxicity guinea pig complement used in the CDC assay (Cedarlane Laboratories Product #CL4051) (guinea pig)
[9] = target: FcγRIIIa (UniProt P08637)
[10] = target: FcγRIIIa (UniProt P08637); test: ELISA: FcγRIIIA coated, antibody titrated

Substance	TRIM21 binding EC50, fold of WT EC50 [3] [fold]	EC50 [4] [ng/mL]	kd (fold decrease*) [5] [fold]	koff (fold decrease*) [5] [fold]	kon (fold increase*) [5] [fold]	EC50 (CDC, CD20+ Raji cells with guinea pig complement) [8] [ng/mL]	EC50 (ADCC reporter bioassay, CD20+ WIL2-S target cells) [9] [ng/mL]	also measured
antibody molecule with Fc variant FcMut015 (D376Q_M428L)	–	–	–	–	–	–	–	Kd [1]: 287 nM; IC50 (read off the curve) [2]: 90 nM
Motavizumab with Fc variant FcMut213 (H285D_T307Q_A378V) (antibody)	< 1.5	10500	13.2	3.3	3.8	–	–	–
Motavizumab with Fc variant FcMut215 (T307Q_Q311V_A378V) (antibody)	< 1.5	7800	12.4	3.7	3.4	–	–	–
LS (antibody)	–	–	–	–	–	–	–	EC50 (read off the curve) [6]: 60 nM
Motavizumab with wild-type Fc (antibody)	–	8500	–	–	–	–	–	kd (fold decrease*) [7]: 1 fold; koff (fold decrease*) [7]: 1 fold; kon (fold increase*) [7]: 1 fold
Rituximab with Fc variant FcMut213 (H285D_T307Q_A378V) (antibody)	–	–	–	–	–	0.267	4.01	–
Rituximab with Fc variant FcMut183 (T256D_Q311V_A378V) (antibody)	–	–	–	–	–	0.103	3.92	–
Motavizumab with Fc variant FcMut183 (T256D_Q311V_A378V) (antibody)	< 1.5	7410	11	3.2	3.2	–	–	–
antibody molecule with Fc variant FcMut008 (T256D_T307R)	–	–	–	–	–	–	–	Kd [1]: 383 nM; IC50 (read off the curve) [2]: 100 nM
Motavizumab with Fc variant FcMut045 (T256D_T307R_Q311V) (antibody)	< 1.5	7730	5.9	2.6	2.3	–	–	–
WT (antibody)	–	–	–	–	–	0.715	6.14	Kd [1]: 862 nM; IC50 (read off the curve) [2]: 300 nM; EC50 (read off the curve) [10]: 3000 ng/mL; EC50 (read off the curve) [6]: 40 nM
Rituximab with Fc variant FcMut215 (T307Q_Q311V_A378V) (antibody)	–	–	–	–	–	0.141	2.73	–
Rituximab with Fc variant FcMut197 (H285N_T307Q_N315D) (antibody)	–	–	–	–	–	2.54	8.3	–
Motavizumab with Fc variant FcMut228 (T256D_N286D_T307R_Q311V_A378V) (antibody)	< 1.5	10400	12.4	4	3.2	–	–	–
Rituximab with Fc variant FcMut228 (T256D_N286D_T307R_Q311V_A378V) (antibody)	–	–	–	–	–	0.22	2.66	–
Rituximab with Fc variant FcMut229 (T256D_H285D_T307R_Q311V_A378V) (antibody)	–	–	–	–	–	0.14	3.07	–
LS (Xencor) (antibody)	–	14500	9.2	3.6	2.6	–	–	–
Motavizumab with Fc variant FcMut197 (H285N_T307Q_N315D) (antibody)	< 1.5	12300	9.1	3	2.9	–	–	–
YTE (Medimmune) (antibody)	–	10100	8.5	3.6	2.3	–	–	–
